Here are results for one molecule from US20070009511A1 (Bristol-Myers Squibb, published 2007).

The assay concerns the target T1, CD86Ig (UniProt P42081 24-247).
T1 construct: extracellular domain; Immobilized on BIAcore chips; also called soluble CD86Ig; B7-2
Kind of assay: SPR, CD86Ig immobilized, monomer against dimer. In general terms: SPR reads the build-up and loss of mass on a sensor chip optically.

T1 sequence (P42081 24-247): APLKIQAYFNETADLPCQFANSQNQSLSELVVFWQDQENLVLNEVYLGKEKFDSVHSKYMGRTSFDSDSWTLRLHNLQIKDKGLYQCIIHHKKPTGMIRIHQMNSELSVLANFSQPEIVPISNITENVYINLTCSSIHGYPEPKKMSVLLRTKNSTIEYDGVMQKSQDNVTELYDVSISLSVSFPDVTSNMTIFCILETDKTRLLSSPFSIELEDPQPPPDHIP

B1: L104EA29YXC120S (receptor)
chain: MHVAQPAVVLASSRGIASFVCEYASPGKYTEVRVTVLRQADSQVTEVCAATYMMGNELTFLDDSICTGTSSGNQVNLTIQGLRAMDTGLYICKVELMYPPPYYEGIGNGTQIYVIDPEPSPDSD
notes: also called single chain L104EA29Y extracellular domain
For B1, the “fold lower binding affinity than the respective dimer (L104EA29YIg)” value is 35 to 80 fold.
